Experimental data as given in US20250347696A1, “SELF-ACTIVATING FÖRSTER RESONANCE ENERGY TRANSFER (saFRET) BIOSENSORS AND METHODS FOR MAKING AND USING THEM” (The Regents of the University of California, priority 2021, published 2025).

How the values were obtained:
[1] = target: parental (WT) ZAP70 FRET biosensor with LAT Y191 substrate … (SEQ ID NO:107), kinase domain removed; test: cell-based or functional assay
[2] = target: improved ZAP70 FRET biosensor with substrate … (SEQ ID NO:113), kinase domain removed; test: cell-based or functional assay
[3] = target: improved ZAP70 FRET biosensor with substrate … (SEQ ID NO:113), kinase domain removed

ECFP/FRET ratio change (sensitivity) of the biosensor in Jurkat T cells upon CD3/CD28-antibody stimulation [1]: 5.8%
ECFP/FRET ratio change (sensitivity) of the biosensor in Jurkat T cells upon CD3/CD28-antibody stimulation [2]: 25%
B1: ZAP70 kinase (Zeta-chain-associated protein kinase 70), endogenous in Jurkat T cells (protein)
chain: MPDPAAHLPFFYGSISRAEAEEHLKLAGMADGLFLLRQCLRSLGGYVLSLVHDVRFHHFPIERQLNGTYAIAGGKAHCGPAELCEFYSRDPDGLPCNLRKPCNRPSGLEPQPGVFDCLRDAMVRDYVRQTWKLEGEALEQAIISQAPQVEKLIATTAHERMPWYHSSLTREEAERKLYSGAQTDGKFLLRPRKEQGTYALSLIYGKTVYHYLISQDKAGKYCIPEGTKFDTLWQLVEYLKLKADGLIYCLKEACPNSSASNASGAAAPTLPAHPSTLTHPQRRIDTLNSDGYTPEPARITSPDKPRPMPMDTSVYESPYSDPEELKDKKLFLKRDNLLIADIELGCGNFGSVRQGVYRMRKKQIDVAIKVLKQGTEKADTEEMMREAQIMHQLDNPYIVRLIGVCQAEALMLVMEMAGGGPLHKFLVGKREEIPVSNVAELLHQVSMGMKYLEEKNFVHRDLAARNVLLVNRHYAKISDFGLSKALGADDSYYTARSAGKWPLKWYAPECINFRKFSSRSDVWSYGVTMWEALSYGQKPYKKMKGPEVMAFIEQGKRMECPPECPPELYALMSDCWIYKWEDRPDFLTVEQRMRACYYSLASKVEGPPGSTQKAEAACA
increase in sensitivity compared to the parental template (SREYVNVSGEL) [3]: > 4 fold
